± gives the uncertainty stated by the source.
Test: protein stability index of a GFP-peptide fusion (yeast GPS) (PSI 1-4); higher = more stable; sorted into four equal gates, so the index is relative within each strain
Settings: pdr5∆
How it was run: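 Tiled 17-residue peptides from yeast proteins were fused downstream of GFP on a plasmid that also expresses Cherry, and the pooled library was carried in yeast. Mid-log cultures grown in leucine-free medium were sorted into four equal gates by GFP/Cherry fluorescence ratio. Plasmids from each gate were PCR-amplified and Illumina-sequenced, and reads were assigned to strains by barcodes. Each peptide's protein stability index is the sum, over gates, of the gate's read frequency multiplied by its gate number.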

Point of comparison: ISFAIYSALNSTYLPKL [RRP42], protein stability index 2.3 ± 0.048. Against it:
- IEWAEHHRDSNFPDEDD [SKP1] — higher, 3.17 ± 0.059
- IFGGAGGVPTTSFGQPQ [YOR098C/NUP1] — lower, 1.58 ± 0.074
- IFLHSLPVKEFQIIDTL [RPS2] — higher, 2.54 ± 0.089
- IFQAKRNSNPENTVGLI [RPN10] — higher, 3.27 ± 0.087
- IGGSDAAFEKRYRVDLL [RPO21] — higher, 3.39 ± 0.067
- IGGSLARIALRHLEKEG [RPS25A] — higher, 2.5 ± 0.054
- IGIAGAHRVRDLMDEEL [SKI6] — higher, 3.36 ± 0.11
- IGISIVGRFSTISSADF [ECM29] — higher, 2.54 ± 0.092
- IGLPRHSLAYLLENFAN [RRP6] — lower, 1.78 ± 0.041
- IGSNGSGKSNFFAAIRF [SMC3] — higher, 3.07 ± 0.066
- IGSQRGRRLSMLASQAN [DSN1] — higher, 2.47 ± 0.068
- IHGQDFQFFPKELDALQ [ISW2] — higher, 2.75 ± 0.053
- IHLYMLTFHTLKKANII [YLR018C/POM34] — lower, 1.27 ± 0.06
- IHQNAGRLLRAMFEICL [BRR2] — lower, 1.75 ± 0.054
- IHSKSMSVERGIRWELI [RPT1] — higher, 3 ± 0.073
- IHSLIPVAKWFVKFITY [SIN4] — higher, 2.52 ± 0.04
- IHSMNENPTPEKGNAKM [SIR3] — higher, 2.67 ± 0.069
- IHVLEQDGGIMGSLING [SKI6] — higher, 3.1 ± 0.1
- IIELPNEKFEIELLSLD [SRB4] — higher, 2.99 ± 0.066
- IIGPNGSGKSNMMDAIS [SMC1] — higher, 3.24 ± 0.089
- IIHFHSHPEKRMIPPRM [SSN3] — higher, 2.95 ± 0.067
- IIKENVKVARLAGKYIP [FAS1] — lower, 1.6 ± 0.27
- IIKQENFNSVNDANITS [SSN2] — lower, 1.1 ± 0.11
- IINKVLDYQETYVEELF [YJL039C/NUP192] — higher, 2.87 ± 0.15
- IINPHAIPSRMTVAHLI [RPB2] — lower, 2.06 ± 0.044
- IIVFGYPESISNELIEH [YDL088C/ASM4] — higher, 2.78 ± 0.049
- IKETKENDEEFYKNKYS [RPN2] — lower, 1.5 ± 0.19
- IKFFWNNTHVGRQFCNR [YLR018C/POM34] — lower, 1.68 ± 0.14
- IKHSKCRQEFLERVKAN [RPL21A] — higher, 3.1 ± 0.23
- IKIVYALTTIKGVGRRY [RPS18A] — lower, 1.95 ± 0.078
- IKVPTYIRKLISSGLLY [SRB8] — lower, 1.27 ± 0.07
- ILCGIQEYLNPVIDTQI [YDL116W/NUP84] — within error, 2.12 ± 0.2
- ILDGLTVRLVNLFSSTG [SRB2] — higher, 3.03 ± 0.16
- ILDIVINNPVNLTIHFG [FAS1] — within error, 2.4 ± 0.078
- ILECDLLICIGTSLKVA [SIR2] — lower, 1.59 ± 0.061
- ILEDFRVIKDFKKLNSK [YMR153W/NUP53] — higher, 3.32 ± 0.12
- ILEEKTDLHLPKKEYDD [NSL1] — within error, 2.39 ± 0.12
- ILGIAGEDFAVLAGDTR [PRE7] — higher, 3.2 ± 0.23
- ILGKNFDSVIVENLTVA [SMC1] — lower, 2.15 ± 0.083
- ILKWVQWSRIVLQNVFK [MED1] — higher, 3.13 ± 0.12
- ILLAGRFRGKRVVYLKH [RPL6A] — lower, 2.17 ± 0.061
- ILNAKYTKETYQSRGID [RPN6] — higher, 3.04 ± 0.066
- ILNHIGQLTGIYRYKYK [PRP8] — lower, 1.47 ± 0.075
- ILSSLYLLSIWVKKFKW [CYT1] — lower, 1.5 ± 0.069
- ILSSVNRTVLLKIFKIF [SRB8] — lower, 1.42 ± 0.14
- ILSTTLDPTDDEGHVLK [SIN4] — higher, 2.64 ± 0.11
- ILTDLVNYRHFKAMEDV [ITC1] — higher, 2.98 ± 0.11
- ILTEHLGYPPISLVDDI [MTW1] — lower, 2.17 ± 0.047
- ILTSKVNAIKNEVKEWA [DSN1] — higher, 2.66 ± 0.094
- ILYEIRALYTPFLLMEL [YDL116W/NUP84] — higher, 2.93 ± 0.064
- ILYYDVLFITPDIVGHE [BRR2] — higher, 2.49 ± 0.052
- IMERIKSSLSLRDHALS [ITC1] — higher, 2.53 ± 0.053
- IMKFQSLSDNDLAVCAT [ECM29] — higher, 2.46 ± 0.067
- IMVLDASIGQAAEQQSK [SRP54] — higher, 2.78 ± 0.29
- INDAGKAKKLIQSLPPT [RPL38] — within error, 2.38 ± 0.042
- INDFKKIGRENENENED [POP5] — higher, 3.38 ± 0.22
- INDIRDDDIEKQEQEEK [YCG1] — higher, 2.79 ± 0.07
- INLAMNESSLALEFVSL [SRB4] — lower, 1.41 ± 0.074
- INNLPPEKEASSATIVL [YCG1] — higher, 2.88 ± 0.14
- INQKALRKIQALRDVKN [GAL11] — lower, 1.26 ± 0.25
- INSDNQNIILRSTMMKF [RPN3] — higher, 2.81 ± 0.086
- INVETVYDIMALEDEER [BRR2] — higher, 2.8 ± 0.081
- INVLTDQNPIQVVVDAI [RPS5] — higher, 2.59 ± 0.038
- IPFPDHNQSPRNTYQSA [RPB2] — higher, 3.06 ± 0.067
- IPFQTLYRSIESGEFDF [YJL039C/NUP192] — within error, 2.27 ± 0.062
- IPHFIDNNSSLNVSNTK [PRP8] — higher, 2.42 ± 0.069
- IPIAIVLKACGILSDLE [RET1] — lower, 1.43 ± 0.061
- IPLDNYDDFIYLSDLKQ [PCI8] — lower, 2.04 ± 0.14
- IPPDQQRLIFAGKQLED [RPS31] — higher, 2.73 ± 0.06
- IQKESTLHLVLRLRGGI [RPL40A] — higher, 2.6 ± 0.071
- IQMNNSLQNNLQNNINN [SNF11] — higher, 3.32 ± 0.088
- IQRFFALHYLVPFIIAA [COB] — lower, 1.17 ± 0.063
- IQRTLMELLTQMDGFDN [RPT4] — higher, 3.22 ± 0.079
- IQTVVISLLALPHSPLW [YML031W/NDC1] — lower, 1.58 ± 0.063
- IQVFEKPFLKKTQEYYT [CDC53] — within error, 2.33 ± 0.056
- IRDLEKLYDKTENDIKA [RPT4] — higher, 2.6 ± 0.21
- IRNIVEAAAVRDLSEAS [RPS26A] — within error, 2.39 ± 0.082
- IRQDVNLGRAVFWEIQS [PRP8] — higher, 2.86 ± 0.053
- ISFLEPINLKFLQGESP [YMR129W/POM152] — higher, 2.94 ± 0.11
- ISGNPPLLYNSLCTVWK [SRB5] — higher, 2.41 ± 0.045
- ISKRKEELEEEFRKKLK [YIL149C/MLP2] — higher, 3.35 ± 0.1
- ISLLCKNFKGIEEIEYN [PCI8] — higher, 3.31 ± 0.075
- ISLVDDIINAVNEIMYK [MTW1] — higher, 2.91 ± 0.081
- ISRERDLFTHLWNQWLK [SRP68] — higher, 3.06 ± 0.12
- ISRNGDTSYKIDGKTVS [SMC1] — higher, 3.01 ± 0.074
- ISSSAIPYSRNAPAWFK [RPS13] — higher, 2.9 ± 0.071
- ISTLFQRDRHTLAYDRG [PRP8] — higher, 3.21 ± 0.13
- ISWCSLSETNGLHKFVK [PRE10] — higher, 2.73 ± 0.12
- ITGEDEVLCSRIIEKSV [RRP45] — higher, 2.45 ± 0.054
- ITHNTNITDNLFQELSK [GRR1] — higher, 3.55 ± 0.13
- ITQMRVNDEEEHKQLVA [RPC82] — higher, 2.92 ± 0.099
- ITRLCQTLGLESFTEEL [MED1] — higher, 2.81 ± 0.063
- ITRSVMRFNIEIIADWI [BRR2] — higher, 2.7 ± 0.078
- IVAKYDPPIIIFINYKQ [PRP28] — lower, 1.77 ± 0.068
- IVAQSEVEVSTRDLFDL [RPO31] — higher, 3.34 ± 0.083
- IVDDYWESLAKKQNLSS [SWP82] — higher, 2.93 ± 0.089
- IVEQDKSMELFYDIRSL [YJL039C/NUP192] — higher, 2.93 ± 0.11
- IVHHPYQSLKQIVQVLK [SSN8] — lower, 1.58 ± 0.099

Source: the supplement of paper PMC9732359
